Measurements: patent US20150160214A1, “Quantitation of Cellular Adhesion Dynamics Across Immobilized Receptors Under Rheological Shear Flow” (Mayo Foundation for Medical Education and Research, priority 2013, published 2015)
Several values for one entry are separate records, joined by “and”; a condition that tells them apart may be missing. Equal values may be shown once.

Tests used:
[1] = determined previously (Auton:2009); cited from earlier work
[2] = Temperature-induced unfolding by fluorescence and CD, irreversible models (Example 1); type: physicochemical
Experimental: A1-1261 and A1-1238 were thermally unfolded using intrinsic protein tyrosine and tryptophan fluorescence with an excitation λ=280 nm and emission λ=359 nm and CD monitored at λ=222 nm. […] As the scan rate increases, the midpoint of the transition (apparent TM) also increases.
Thermal transitions were analyzed in terms of the observed midpoint of the transition, apparent TM, and also by a two-state irreversible model or a three-state irreversible model as described in the Supplement and the calculated parameters are summarized in FIGS. 5A to 5D. […] If the protein unfolding was at equilibrium and reversible, this apparent TM would remain constant at all scan rates. Extrapolation of the TM to a scan rate of 0° Celsius/min provides an indication of where reversible unfolding would occur under equilibrium conditions; 50° Celsius for A1-1238 and 48° Celsius for A1-1261 from both CD and fluorescence data. For the second transition observed by fluorescence that occurs with A1-1238, the TM extrapolates to about 73° Celsius in the limit of zero scan rate. Analysis by the two-state and three-state irreversible models yields an R^2>0.99 for both fluorescence and CD and a transition temperature, T*, that is independent of the temperature scan rate. In addition, the enthalpies of the transitions are independent of scan rate within experimental error FIG. 5B. FIGS. 5C and 5D show the resulting average T* and ΔHT*^‡±the standard deviation obtained from the fitting of the primary thermal transitions in FIG. 4A to 4D for CD and fluorescence and a total average for both methods. […] However, the unfolding enthalpy was statistically larger for A1-1238 (250±15 kJ/mol) than for A1-1261 (204±10 kJ/mol). The average T* and ΔHT*^‡ observed in the second fluorescence transition of A1-1238 is 89.1±2.2° Celsius and 360±14 kJ/mol.
Prior to all spectroscopic thermal scans, protein samples were equilibrated at 10° Celsius for 15 min to obtain a stable baseline. CD thermal scans between 10 and 95° Celsius were recorded at λ=222 nm using a protein concentration of 1 or 2 μM in a 1 cm quartz cell under moderate stirring. Scan rates were 0.5, 1.0, 1.5 and 2.0° Celsius/min. Integration time for each data point was 20 s with a 1 nm bandwidth. Fluorescence thermal scans between 10 and 95 Celsius were recorded at an emission λ=359 nm after excitation λ=280 nm or λ=295 nm using 2 μM protein in a 1 cm quartz cell with moderate stirring. Scan rates were 0.4 or 0.6, 0.9, 1.6 and 2.0° Celsius/min. At each temperature, relative fluorescence intensity was collected for 4 s and averaged. Thermal scans in the presence of N-terminal peptide at 2.0° Celsius/min were preceded by 1 h incubations at 20° Celsius with 0.02-300 μM peptide.
For an irreversible two-state transition, unfolding is kinetically controlled by a first order rate constant that varies with temperature according to the Arrhenius equation (Atkins:1994). In our analysis the inventor refers to the intermediate state as the final irreversible state for all thermal transitions involving the unfolding of A1-1261 in the absence of peptide when monitored by fluoresence, CD and DSC and for A1-1238 when monitored by CD and DSC. The following equations derived below are equally valid for any two state irreversible transitions The activation energy in going from N->I is ΔG^‡=−RT ln k^‡ and the inventor expands ln k^‡ as a function of temperature in terms of Δβ=(β−β*)=(1/RT−1/RT*) using a Taylor series, where T̂* is the temperature at which ΔG^‡=0.

[3] = covalently linked N-terminal peptide

In the case of “A1-1238: Recombinant human vWF A1 domain, amino acids Q1238-P1471, with N-terminal 6×His-Tag, disulfide intact”, the “Tm from reversible N<->I urea-temperature phase diagram” value [1] is given as 51.1±0.5 ° Celsius, the “Apparent TM extrapolated to a scan rate of 0° Celsius/min, primary transition” value ([2]; CD and fluorescence data) is given as 50 ° Celsius and 49.8±1.2 ° Celsius and the “Transition temperature T*, primary unfolding transition” value ([2]; average of CD and fluorescence) is given as 63.9±0.6 ° Celsius. For the same substance, the “Unfolding enthalpy ΔHT*‡, primary unfolding transition” value ([2]; average of CD and fluorescence) was 59.8 ± 3.59 kcal/mol, the “Average T*, second fluorescence transition” value [2, 3] was 89.1±2.2 ° Celsius and the “Average ΔHT*‡, second fluorescence transition” value [2, 3] was 86 ± 3.35 kcal/mol. For the same substance, the “Apparent TM extrapolated to zero scan rate, second transition by fluorescence” value ([2]; fluorescence) was “about 73 ° Celsius”.
